Data from US20190359697A1 (Scripps Research, published 2019).

What was measured:
CD19 [1] = molecular target: T1, CD19 (UniProt P15391 20-556); assay: flow cytometry cell binding; FIG. 6
T1 chain: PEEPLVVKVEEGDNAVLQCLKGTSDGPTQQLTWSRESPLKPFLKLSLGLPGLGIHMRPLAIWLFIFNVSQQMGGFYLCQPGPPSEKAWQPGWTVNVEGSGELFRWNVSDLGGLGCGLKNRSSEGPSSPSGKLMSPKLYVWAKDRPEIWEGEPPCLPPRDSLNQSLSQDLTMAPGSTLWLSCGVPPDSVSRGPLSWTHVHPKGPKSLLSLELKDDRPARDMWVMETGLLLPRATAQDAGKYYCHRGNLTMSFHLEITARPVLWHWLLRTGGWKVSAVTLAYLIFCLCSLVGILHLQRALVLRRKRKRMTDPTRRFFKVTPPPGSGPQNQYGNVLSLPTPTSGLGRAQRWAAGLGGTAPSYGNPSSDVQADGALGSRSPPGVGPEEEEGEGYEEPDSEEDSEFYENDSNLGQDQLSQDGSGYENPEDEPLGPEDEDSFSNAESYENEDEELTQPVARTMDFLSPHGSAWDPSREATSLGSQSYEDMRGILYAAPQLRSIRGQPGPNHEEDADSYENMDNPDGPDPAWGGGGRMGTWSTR

CD19 [2] = molecular target: T1, CD19; assay: flow cytometry cell binding; FIG. 8
CD19 [3] = molecular target: CD19 (UniProt P15391); assay: cell-based or functional assay
CD19 [4] = molecular target: T2, CD19 (UniProt P15391 20-556, limits assumed); assay: cell-based or functional assay
T2 sequence (looked up): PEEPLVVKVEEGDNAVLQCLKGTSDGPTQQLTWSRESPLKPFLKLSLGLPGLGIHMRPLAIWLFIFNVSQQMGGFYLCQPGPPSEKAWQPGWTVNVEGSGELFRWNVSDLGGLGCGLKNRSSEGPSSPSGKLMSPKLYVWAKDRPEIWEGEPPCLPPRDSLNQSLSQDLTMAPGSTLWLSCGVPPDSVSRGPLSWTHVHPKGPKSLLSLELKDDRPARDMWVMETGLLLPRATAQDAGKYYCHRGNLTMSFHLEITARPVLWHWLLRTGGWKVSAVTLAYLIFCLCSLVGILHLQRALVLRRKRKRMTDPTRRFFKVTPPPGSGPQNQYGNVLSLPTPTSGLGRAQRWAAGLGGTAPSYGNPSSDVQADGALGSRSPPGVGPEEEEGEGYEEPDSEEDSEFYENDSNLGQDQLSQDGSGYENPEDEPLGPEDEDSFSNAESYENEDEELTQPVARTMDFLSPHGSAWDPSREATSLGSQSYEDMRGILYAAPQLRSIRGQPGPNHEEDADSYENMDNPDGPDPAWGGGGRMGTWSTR

CD19 [5] = molecular target: T1, CD19; assay: flow cytometry cell binding; FIG. 7
CD19 [6] = molecular target: T1, CD19; assay: flow cytometry cell binding; FIG. 5; WT switch (no PNE)

Binder	EC50 (CD19 [1]) [pM]	EC50 (CD19 [2]) [pM]	EC50 of cytotoxicity (LDH), sCAR-T cells + switch vs CD19+ RS4;11, Average of the repeat assays (CD19 [3]) [pM]	EC50 of cytotoxicity (LDH), sCAR-T cells + switch vs CD19+ RS4;11, assay DTR-5-15 (PBMC) (CD19 [3]) [pM]	EC50 of cytotoxicity (LDH), sCAR-T cells + switch vs CD19+ RS4;11, assay DTR-5-16 (CD4:CD8) (CD19 [3]) [pM]	EC50 of cytotoxicity (LDH), sCAR-T cells + switch vs CD19+ RS4;11, assay DTR-5-50 (PBMC) (CD19 [3]) [pM]	EC50 of cytotoxicity (LDH), sCAR-T cells + switch vs CD19+ RS4;11, assay DTR-5-51 (CD4:CD8) (CD19 [3]) [pM]	EC50 of cytotoxicity (LDH), sCAR-T cells + switch vs CD19+ RS4;11, Average of the repeat assays (CD19 [4]) [pM]	EC50 of cytotoxicity (LDH), sCAR-T cells + switch vs CD19+ RS4;11, assay DTR-5-15 (PBMC) (CD19 [4]) [pM]	EC50 of cytotoxicity (LDH), sCAR-T cells + switch vs CD19+ RS4;11, assay DTR-5-16 (CD4:CD8) (CD19 [4]) [pM]	EC50 of cytotoxicity (LDH), sCAR-T cells + switch vs CD19+ RS4;11, assay DTR-5-50 (PBMC) (CD19 [4]) [pM]	EC50 of cytotoxicity (LDH), sCAR-T cells + switch vs CD19+ RS4;11, assay DTR-5-51 (CD4:CD8) (CD19 [4]) [pM]	EC50 (CD19 [5]) [pM]	EC50 (CD19 [6]) [pM]
hFMCL2b-LCNT/hFMCH4c (Fab, V domains shown) VH: QVQLQESGPGLVKPSETLSVTCTVSGVSLPDYGVSWIRQPPGKGLEWLGVIWGSETTYYNSALKSRLTISKDNSKNQVSLKMSSLTAADTAVYYCAKHYYYGGSYAMDYWGQGTLVTVSS VL: DIQMTQSPSSLSASVGDRVTITCRASQDISKYLNWYQQKPGKAVKLLIYHTSRLHSGVPSRFSGSGSGTDYTLTISSLQPEDFATYFCQQGATLPYTFGQGTKLEIK	1260	1590	10.2	8.41	8.47	7.54	16.5	4.6	4.57	4.61	3.78	5.45	–	–
hFMCL2/H4b WT (antibody, V domains shown) VH: QVQLQESGPGLVKPSETLSVTCTVSGVSLPDYGVSWIRQPPGKGLEWLGVIWGSETTYYNPSLKSRLTISKDNSKNQVSLKMSSLTAADTAVYYCAKHYYYGGSYAMDYWGQGTLVTVSS VL: DIQMTQSPSSLSASVGDRVTITCRASQDISKYLNWYQQKPGKAPKLLIYHTSRLHSGVPSRFSGSGSGTDYTLTISSLQPEDFATYYCQQGATLPYTFGQGTKLEIK	–	–	–	–	–	–	–	–	–	–	–	–	5380	4130
hFMCL2a-LCNT/hFMCH4c (Fab, V domains shown) VH: QVQLQESGPGLVKPSETLSVTCTVSGVSLPDYGVSWIRQPPGKGLEWLGVIWGSETTYYNSALKSRLTISKDNSKNQVSLKMSSLTAADTAVYYCAKHYYYGGSYAMDYWGQGTLVTVSS VL: DIQMTQSPSSLSASVGDRVTITCRASQDISKYLNWYQQKPGKAVKLLIYHTSRLHSGVPSRFSGSGSGTDYTLTISSLQPEDFATYYCQQGATLPYTFGQGTKLEIK	1700	1810	–	–	–	–	–	9.5	4.43	9.32	7.05	17.2	–	–
hFMCL2b-LCNT/hFMCH4b (Fab, V domains shown) VH: QVQLQESGPGLVKPSETLSVTCTVSGVSLPDYGVSWIRQPPGKGLEWLGVIWGSETTYYNPSLKSRLTISKDNSKNQVSLKMSSLTAADTAVYYCAKHYYYGGSYAMDYWGQGTLVTVSS VL: DIQMTQSPSSLSASVGDRVTITCRASQDISKYLNWYQQKPGKAVKLLIYHTSRLHSGVPSRFSGSGSGTDYTLTISSLQPEDFATYFCQQGATLPYTFGQGTKLEIK	1220	–	–	–	–	–	–	6.21	5.17	5.78	3.93	9.96	2270	–
hFMCL2c-LCNT/hFMCH4b (Fab, V domains shown) VH: QVQLQESGPGLVKPSETLSVTCTVSGVSLPDYGVSWIRQPPGKGLEWLGVIWGSETTYYNPSLKSRLTISKDNSKNQVSLKMSSLTAADTAVYYCAKHYYYGGSYAMDYWGQGTLVTVSS VL: DIQMTQSPSSLSASVGDRVTITCRASQDISKYLNWYQQKPGKAVKLLIYHTSRLHSGVPSRFSGSGSGTDYTLTISSLQPEDFATYFCQQGATLPYTFGQGTKLEIK	1380	–	–	–	–	–	–	5.18	4.04	3.25	3.78	9.65	1680	–
hFMCL2/H4b wt (antibody, V domains shown) VH: QVQLQESGPGLVKPSETLSVTCTVSGVSLPDYGVSWIRQPPGKGLEWLGVIWGSETTYYNPSLKSRLTISKDNSKNQVSLKMSSLTAADTAVYYCAKHYYYGGSYAMDYWGQGTLVTVSS VL: DIQMTQSPSSLSASVGDRVTITCRASQDISKYLNWYQQKPGKAPKLLIYHTSRLHSGVPSRFSGSGSGTDYTLTISSLQPEDFATYYCQQGATLPYTFGQGTKLEIK	–	3840	–	–	–	–	–	–	–	–	–	–	–	–
hFMCL2/H4z (antibody, V domains shown) VH: QVQLQESGPGLVKPSETLSVTCTVSGVSLPDYGVSWIRQPPGKGLEWLGVIWGSETTYYNSSLKSRLTISKDNSKNQVSLKMSSLTAADTAVYYCAKHYYYGGSYAMDYWGQGTLVTVSS VL: DIQMTQSPSSLSASVGDRVTITCRASQDISKYLNWYQQKPGKAPKLLIYHTSRLHSGVPSRFSGSGSGTDYTLTISSLQPEDFATYYCQQGATLPYTFGQGTKLEIK	12400	13100	–	–	–	–	–	–	–	–	–	–	–	–
hFMCL2a-LCNT/hFMCH4b (Fab, V domains shown) VH: QVQLQESGPGLVKPSETLSVTCTVSGVSLPDYGVSWIRQPPGKGLEWLGVIWGSETTYYNPSLKSRLTISKDNSKNQVSLKMSSLTAADTAVYYCAKHYYYGGSYAMDYWGQGTLVTVSS VL: DIQMTQSPSSLSASVGDRVTITCRASQDISKYLNWYQQKPGKAVKLLIYHTSRLHSGVPSRFSGSGSGTDYTLTISSLQPEDFATYYCQQGATLPYTFGQGTKLEIK	1610	–	–	–	–	–	–	6.8	10.4	6.03	5.29	5.45	2430	–
